Reference: patent US20250122304A1, “PRE-TARGETING” (Precirix N.V., priority 2022, published 2025)

T1: human FAP (Homo sapiens, UniProt Q12884)
T1 sequence (Q12884 1-760): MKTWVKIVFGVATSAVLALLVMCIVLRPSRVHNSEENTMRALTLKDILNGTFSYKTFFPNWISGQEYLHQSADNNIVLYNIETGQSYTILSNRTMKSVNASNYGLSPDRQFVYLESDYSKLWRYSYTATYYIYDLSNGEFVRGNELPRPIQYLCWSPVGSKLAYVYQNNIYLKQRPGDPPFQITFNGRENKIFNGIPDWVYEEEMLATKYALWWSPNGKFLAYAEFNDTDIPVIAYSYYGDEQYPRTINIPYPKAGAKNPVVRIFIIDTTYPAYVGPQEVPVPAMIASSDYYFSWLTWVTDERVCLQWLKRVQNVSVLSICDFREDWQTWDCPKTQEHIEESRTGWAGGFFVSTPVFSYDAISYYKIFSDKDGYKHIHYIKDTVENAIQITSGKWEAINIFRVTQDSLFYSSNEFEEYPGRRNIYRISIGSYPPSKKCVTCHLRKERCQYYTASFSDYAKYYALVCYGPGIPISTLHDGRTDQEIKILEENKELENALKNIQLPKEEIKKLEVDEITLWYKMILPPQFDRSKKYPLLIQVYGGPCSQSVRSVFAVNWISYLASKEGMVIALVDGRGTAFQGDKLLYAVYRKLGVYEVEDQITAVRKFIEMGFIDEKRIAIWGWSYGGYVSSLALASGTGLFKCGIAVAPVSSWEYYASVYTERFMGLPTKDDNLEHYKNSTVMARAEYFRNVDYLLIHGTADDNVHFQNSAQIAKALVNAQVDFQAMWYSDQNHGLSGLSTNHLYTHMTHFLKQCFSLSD

T2: human fibroblast activation protein (FAP) (human, UniProt Q12884 26-760)
T2 construct: also called human FAP; hFAP
T2 sequence: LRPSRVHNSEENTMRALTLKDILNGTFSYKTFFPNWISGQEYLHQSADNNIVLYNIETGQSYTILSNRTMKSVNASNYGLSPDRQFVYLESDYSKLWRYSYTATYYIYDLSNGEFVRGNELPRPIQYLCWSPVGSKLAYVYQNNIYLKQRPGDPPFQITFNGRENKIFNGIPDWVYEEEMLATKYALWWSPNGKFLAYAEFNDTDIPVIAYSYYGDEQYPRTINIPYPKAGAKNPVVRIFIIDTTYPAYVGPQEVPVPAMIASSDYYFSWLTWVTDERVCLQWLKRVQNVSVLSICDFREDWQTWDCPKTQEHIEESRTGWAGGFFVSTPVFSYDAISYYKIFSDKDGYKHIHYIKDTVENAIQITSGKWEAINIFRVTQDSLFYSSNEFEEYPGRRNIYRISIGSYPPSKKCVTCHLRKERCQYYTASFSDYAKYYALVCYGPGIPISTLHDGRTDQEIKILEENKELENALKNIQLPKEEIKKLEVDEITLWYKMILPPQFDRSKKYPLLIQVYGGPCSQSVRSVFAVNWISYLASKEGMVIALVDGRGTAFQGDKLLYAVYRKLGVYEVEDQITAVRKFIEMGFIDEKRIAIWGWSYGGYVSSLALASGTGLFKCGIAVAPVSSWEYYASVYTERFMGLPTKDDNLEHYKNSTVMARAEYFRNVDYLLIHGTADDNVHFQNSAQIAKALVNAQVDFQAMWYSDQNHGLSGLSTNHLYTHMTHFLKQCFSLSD

B1: VHH9: VHH, target FAP, SEQ ID NO 92 (protein)
VHH: QVQLQESGGGLVQSGGSLRLSCVASGSISSINAMGWYRQAPGNKREWVAGITSGGSTNYADAVLGRFSIFRDNPKNTVYLQMNSLKPEDTAVYYCNTWPPSTFGSWGQGTQVTVSSAAAYPYDVPDYGSHHHHHH
B2: VHH8: VHH, target FAP, SEQ ID NO 91 (protein)
VHH: QVQLQESGGGTVQPGGSLRLSCAASGISVSIASMAWYRQAPGKQRELVAGIISGGSTNYADSVKGRFTISRDNAKKVVLLQMNSLKPEDTAVYYCNTYPPFVGPGATATWGQGTQVTVSSAAAYPYDVPDYGSHHHHHH
B3: VHH7: VHH, target FAP, SEQ ID NO 90 (protein)
VHH: QVQLQESGGGLVQAGGSLRLSCTASGTFSGRNAMAWYRQAPGKRRELVAGIRSDDSTNYVDSVKGRFTISRDNAKNTVYLQMNSLRPEDTAVYYCNLWPPVIGAGFGSWGQGTQVTVSSAAAYPYDVPDYGSHHHHHH
B4: VHH6: VHH, target FAP, SEQ ID NO 89 (protein)
VHH: DVQLVESGGGLVQAGGSLRLSCAVSGSISSANSMGWYRQAPGKQRDVVAGLTTGGRSHYADSVKGRFTISRDNAKNTVYLQMNSLKAEDTAVYYCNLWPPVQGYWGQGTQVTVSS
B5: VHH1: VHH, target FAP, SEQ ID NO 4 (protein)
VHH: DVQLVESGGGLVQPGGSLRLSCVASGRLSSSNSMAWYRQVPGKRRELVAGITGGGETNYADFVGGRFTISRDNAKNGLYLQLNGLKPEDTAAYYCNFWPPLINYWGQGTQVTVSS
modifications: VHH1
B6: VHH7 (VHH)
VHH: QVQLQESGGGLVQAGGSLRLSCTASGTFSGRNAMAWYRQAPGKRRELVAGIRSDDSTNYVDSVKGRFTISRDNAKNTVYLQMNSLRPEDTAVYYCNLWPPVIGAGFGSWGQGTQVTVSS
notes: Anti-FAP VHH, tested before TCO conjugation; also called unconjugated VHH7
B7: VHH6 (VHH)
VHH: B4 VHH
notes: Anti-FAP VHH, tested before TCO conjugation; also called unconjugated VHH6
B8: VHH1 (VHH)
VHH: B5 VHH
notes: Anti-FAP VHH, tested before TCO conjugation; also called VHH VHH1; unconjugated VHH1
B9: VHH9 (VHH)
VHH: QVQLQESGGGLVQSGGSLRLSCVASGSISSINAMGWYRQAPGNKREWVAGITSGGSTNYADAVLGRFSIFRDNPKNTVYLQMNSLKPEDTAVYYCNTWPPSTFGSWGQGTQVTVSS
notes: Anti-FAP VHH, tested before TCO conjugation; also called unconjugated VHH9
B10: VHH8 (VHH)
VHH: QVQLQESGGGTVQPGGSLRLSCAASGISVSIASMAWYRQAPGKQRELVAGIISGGSTNYADSVKGRFTISRDNAKKVVLLQMNSLKPEDTAVYYCNTYPPFVGPGATATWGQGTQVTVSS
notes: Anti-FAP VHH, tested before TCO conjugation; also called unconjugated VHH8
B11: TCO-VHH9: TCO conjugated VHH9 (FAP binding) (conjugate)
VHH: B1 VHH
modifications: cyclised or stapled
B12: TCO-VHH8 (conjugate)
VHH: B2 VHH
modifications: cyclised or stapled
B13: TCO-VHH7 (conjugate)
VHH: B3 VHH
modifications: cyclised or stapled
B14: TCO-VHH1: VHH1, functionalized with transcyclooctene (TCO) (conjugate)
VHH: B5 VHH
modifications: cyclised or stapled

These molecules were tested against T1, human FAP (assay: BLI (Octet) binding kinetics pre- and post-TCO conjugation (Example 7, Table 17)). Conditions: Post conjugation (TCO).
Procedure: Five VHHs binding the target (human FAP) with different dissociation rate constants were conjugated to TCO-NHS. Using the BLI technology on Octet system the binding kinetics towards human FAP were determined for each of the five VHHs pre- and post-TCO conjugation.

Row | Molecule | koff [s⁻¹] | kon [M⁻¹ s⁻¹]
1 | B1 | 0.0012 | 1.26e+06
2 | B2 | 0.000559 | 833000
3 | B3 | 0.000123 | 746000
4 | B4 | 0.000157 | 1.07e+06
5 | B5 | 4.99e-05 | 694000

Same assay, conditions: Pre conjugation (TCO)

Row | Molecule | koff [s⁻¹] | kon [M⁻¹ s⁻¹]
6 | B1 | 0.0018 | 3.98e+06
7 | B2 | 0.000679 | 1.01e+06
8 | B3 | 0.000197 | 2.4e+06
9 | B4 | 0.000188 | 3.41e+06
10 | B5 | 8.52e-05 | 1.77e+06

Each molecule was assayed against T2, human fibroblast activation protein … (assay: BLI (Octet), kinetics to human FAP, pre TCO conjugation). Conditions: not given.
Procedure: Using the BLI technology on Octet system the binding kinetics towards human FAP were determined for each of the five VHHs pre- and post-TCO conjugation.

Row | Molecule | Kd [nM] | koff [s⁻¹] | kon [M⁻¹ s⁻¹]
11 | B6 | 0.0819 | 0.000197 | 2.4e+06
12 | B7 | 0.0551 | 0.000188 | 3.41e+06
13 | B8 | 0.0482 | 8.52e-05 | 1.77e+06
14 | B9 | 0.453 | 0.0018 | 3.98e+06
15 | B10 | 0.672 | 0.000679 | 1.01e+06

Each molecule was assayed against T1, human FAP (assay: BLI click reaction with Tz-R3B23 on TCO-VHHs bound to target, span (Example 7, Table 18)). Conditions: Experiment 1, click reaction with 50 nM Tz-R3B23 for 20 minutes, signal difference vs assay buffer.
Procedure: Next, Octet Streptavidin (SA) Biosensors were coated with 5 μg/mL biotinylated human FAP in assay buffer (HBS+0.5% BSA+0.1% Tween20) for 5 minutes. The sensors were then dipped in wells containing a 5 nM solution of the different VHHs (both TCO conjugated and unconjugated as control) for 20 minutes (association step) and further transferred to the assay buffer (dissociation step) for 30 minutes. After the dissociation phase, that simulates the lag time, the sensors were transferred to either a well containing 50 nM of a tetrazine-coupled, non-FAP binding R3B23 (Tz-R3B23) or to a well containing assay buffer as a control. This reaction was allowed to proceed for 20 minutes (experiment 1) or 30 minutes (experiment 2) after which the sensors were washed for 30 minutes in assay buffer. In the second experiment the TCO-VHHs were measured in duplicate (referred to as assay 1 and 2 of ‘experiment 2’ in the table below). Using the epitope binning function of ‘Octet Analysis Software’ we then determined the difference in signal between the VHHs incubated with Tz-R3B23 and the VHHs incubated with assay buffer. […] The span of unconjugated VHHs was considered as noise.

Row | Molecule | Span
16 | B11 | 0.0015
17 | B1 | 0.0040
18 | B2 | 0.0096
19 | B12 | 0.0224
20 | B3 | 0.0082
21 | B13 | 0.0145
22 | B4 | 0.0021
23 | B14 | 0.0237
24 | B5 | 0.0089

Same assay, conditions: Experiment 2, 1st assay, click reaction with 50 nM Tz-R3B23 for 30 minutes, signal difference vs assay buffer

Row | Molecule | Span
25 | B11 | 0.0091
26 | B1 | −0.0008
27 | B2 | 0.0028
28 | B12 | 0.0218
29 | B3 | 0.0018
30 | B13 | 0.0186
31 | B4 | 0.0017
32 | B14 | 0.0334
33 | B5 | 0.0004

Same assay, conditions: Experiment 2, 2nd assay, click reaction with 50 nM Tz-R3B23 for 30 minutes, signal difference vs assay buffer

Row | Molecule | Span
34 | B11 | 0.0113
35 | B12 | 0.0341
36 | B13 | 0.0230
37 | B14 | 0.0257

Same assay, conditions: both experiments

Row | Molecule | span of unconjugated VHHs (noise)
38 | B2 | the highest

Same assay, conditions: experiment 1 (20 minutes Tz-R3B23)

Row | Molecule | click reaction (span versus noise value)
39 | B11 | no click reaction took place

Same assay, conditions: experiment 2 (30 minutes Tz-R3B23), both assays

Row | Molecule | click reaction (span versus noise value)
40 | B11 | just above the noise value
